By Kd is commonly meant the constant that tells how readily two partners part at equilibrium. By stoichiometry N is commonly meant a count of units in the complex or per binding partner. What is called koff is the rate constant with which the complex falls apart. A low value points to a long-lived complex.

Results on eight molecules are retold here after publication PMC7966745, “Elucidation of transient protein-protein interactions within carrier protein-dependent biosynthesis” (Communications Biology, 2021).

The chains are these.
T1: TesA, E. coli thioesterase (E. coli, UniProt P0ADA1 27-208)
T1 construct: TesA thioesterase 1, E. coli; the natural protein is periplasmic; source: E. coli BL21 (DE3), purified (Ni-IMAC, Superdex 75)
T1 sequence: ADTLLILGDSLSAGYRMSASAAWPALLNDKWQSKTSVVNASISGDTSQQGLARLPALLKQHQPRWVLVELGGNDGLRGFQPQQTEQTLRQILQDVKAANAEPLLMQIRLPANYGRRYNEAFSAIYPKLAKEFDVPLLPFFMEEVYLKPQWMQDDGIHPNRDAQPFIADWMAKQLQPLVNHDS

T2: TesA, E. coli thioesterase (E. coli, UniProt P0ADA1 27-208)
T2 construct: thioesterase TesA (thioesterase 1), E. coli; source: E. coli BL21 (DE3), purified (Ni-IMAC, Superdex 75)
T2 sequence: T1 sequence

T3: FabF, E. coli elongating ketosynthase (E. coli, UniProt P0AAI5 2-413)
T3 construct: ketosynthase FabF (3-oxoacyl-ACP synthase 2), E. coli; also called KS; source: E. coli BL21 (DE3), purified (Ni-IMAC, Superdex 75)
T3 sequence: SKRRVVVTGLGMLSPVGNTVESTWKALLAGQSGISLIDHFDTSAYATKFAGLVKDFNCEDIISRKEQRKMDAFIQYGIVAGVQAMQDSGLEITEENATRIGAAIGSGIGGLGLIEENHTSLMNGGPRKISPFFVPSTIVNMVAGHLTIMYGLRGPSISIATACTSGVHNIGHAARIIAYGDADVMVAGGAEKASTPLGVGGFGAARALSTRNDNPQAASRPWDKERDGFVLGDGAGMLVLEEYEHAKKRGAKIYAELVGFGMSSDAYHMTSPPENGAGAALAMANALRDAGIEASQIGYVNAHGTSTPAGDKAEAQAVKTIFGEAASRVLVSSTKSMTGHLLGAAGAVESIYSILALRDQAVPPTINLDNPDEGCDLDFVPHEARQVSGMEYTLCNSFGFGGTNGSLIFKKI

B1: FabI, enoylreductase of E. coli fatty acid biosynthesis (enzyme)
chain: MGFLSGKRILVTGVASKLSIAYGIAQAMHREGAELAFTYQNDKLKGRVEEFAAQLGSDIVLQCDVAEDASIDTMFAELGKVWPKFDGFVHSIGFAPGDQLDGDYVNAVTREGFKIAHDISSYSFVAMAKACRSMLNPGSALLTLSYLGAERAIPNYNVMGLAKASLEANVRYMANAMGPEGVRVNAISAGPIRTLAASGIKDFRKMLAHCEAVTPIRRTVTIEDVGNSAAFLCSDLSAGISGEVVHVDGGFSIAAMNELELK
notes: FabI enoyl-ACP reductase, E. coli; titrated with 0.5 mM NAD+ in the buffer; also called ER; source: E. coli BL21 (DE3), purified (Ni-IMAC, Superdex 75)
B2: FabI, E. coli enoylreductase (enzyme)
chain: B1 chain
notes: enoylreductase FabI (enoyl-ACP reductase [NADH]), E. coli; Titrated with 0.5 mM NAD+ present; also called ER; source: E. coli BL21 (DE3), purified (Ni-IMAC, Superdex 75)
B3: FabF, elongating ketosynthase of E. coli fatty acid biosynthesis (enzyme)
chain: T3 sequence
notes: FabF ketosynthase (3-oxoacyl-ACP synthase 2), E. coli; also called KS; source: E. coli BL21 (DE3), purified (Ni-IMAC, Superdex 75)
B4: octanoyl-AcpP (15N-C8-AcpP), E. coli acyl carrier protein (natural protein)
chain: STIEERVKKIIGEQLGVKQEEVTNNASFVEDLGADSLDTVELVMALEEEFDTEIPDEEAEKITTVQAAIDYINGHQA
modifications: octanoyl pantethenamide probe loaded as a 4'-phosphopantetheine analog (amide linked octanoyl) on S36; uniformly 15N labeled and perdeuterated
notes: Acyl carrier protein AcpP of E. coli; Grown on a His-tagged pET-22b vector; also called amide linked octanoyl AcpP; source: E. coli BL21 (DE3), M9 minimal media with 15N NH4Cl and D2O, purified; made apo with ACPH, then loaded with an octanoyl pantethenamide probe (CoaA, CoaD, CoaE, Sfp)
B5: octanoyl-AcpP (C8-AcpP), E. coli acyl carrier protein (natural protein)
chain: B4 chain
modifications: octanoyl pantethenamide probe loaded (stable C8 acyl analog); uniformly 15N labeled and perdeuterated
notes: acyl carrier protein AcpP, E. coli; PDB 2FAD is heptanoyl-AcpP, used for docking only; also called 15N-C8-AcpP; source: E. coli BL21 (DE3), M9 minimal media with 15N NH4Cl and D2O, purified; made apo with P. aeruginosa ACPH, then loaded with CoaA, CoaD, CoaE and Sfp
B6: FabG, ketoreductase of E. coli fatty acid biosynthesis (enzyme)
chain: MNFEGKIALVTGASRGIGRAIAETLAARGAKVIGTATSENGAQAISDYLGANGKGLMLNVTDPASIESVLEKIRAEFGEVDILVNNAGITRDNLLMRMKDEEWNDIIETNLSSVFRLSKAVMRAMMKKRHGRIITIGSVVGTMGNGGQANYAAAKAGLIGFSKSLAREVASRGITVNVVAPGFIETDMTRALSDDQRAGILAQVPAGRLGGAQEIANAVAFLASDEAAYITGETLHVNGGMYMV
notes: FabG 3-oxoacyl-ACP reductase, E. coli; titrated with 0.5 mM NAD+ in the buffer; also called KR; source: E. coli BL21 (DE3), purified (Ni-IMAC, Superdex 75)
B7: FabG, E. coli ketoreductase (enzyme)
chain: B6 chain
notes: ketoreductase FabG (3-oxoacyl-ACP reductase), E. coli; Titrated with 0.5 mM NAD+ present; also called KR; source: E. coli BL21 (DE3), purified (Ni-IMAC, Superdex 75)

Assay [1] deals with FabB (Escherichia coli) (UniProt P0A953). The assay is described as follows: NMR titration (TITAN). The conditions noted are these: cited from earlier work.
Assay [2] has as its target B4. In words: NMR titration; 1H-15N HSQC of perdeuterated 15N-C8-AcpP with increasing unlabeled partner protein, five points; TITAN 2D lineshape analysis, flexible stoichiometry model, error from 300 bootstrap steps; 37 °C, 10 mM potassium phosphate pH 7.4, 0.5 mM TCEP, 0.5 mM NAD+, 0.1% NaN3. The conditions noted are these: both partners purified.
The target of assay [3] is B5. In words: NMR titration; 1H-15N HSQC of 15N, perdeuterated C8-AcpP titrated with unlabeled partner, at least five points; 37 °C; 10 mM potassium phosphate pH 7.4, 0.5 mM TCEP, 0.5 mM NAD+, 0.1% NaN3; TITAN 2D lineshape analysis, flexible stoichiometry model. The conditions noted are these: both partners purified.
For assay [4], the target named is B4. The assay is described as follows: NMR titration; 1H-15N HSQC of perdeuterated 15N-C8-AcpP with increasing unlabeled partner protein, five points; TITAN 2D lineshape analysis, flexible stoichiometry model, error from 300 bootstrap steps; 37 °C, 10 mM potassium phosphate pH 7.4, 0.5 mM TCEP, 0.1% NaN3. The conditions noted are these: both partners purified.
The target in assay [5] is B1. In words: NMR titration; 1H-15N HSQC of perdeuterated 15N-C8-AcpP with increasing unlabeled partner protein, five points; TITAN 2D lineshape analysis, flexible stoichiometry model, error from 300 bootstrap steps; 37 °C, 10 mM potassium phosphate pH 7.4, 0.5 mM TCEP, 0.5 mM NAD+, 0.1% NaN3. The conditions noted are these: both partners purified.
In assay [6] the target is B3. In words: NMR titration; 1H-15N HSQC of perdeuterated 15N-C8-AcpP with increasing unlabeled partner protein, five points; TITAN 2D lineshape analysis, flexible stoichiometry model, error from 300 bootstrap steps; 37 °C, 10 mM potassium phosphate pH 7.4, 0.5 mM TCEP, 0.1% NaN3. The conditions noted are these: both partners purified.
Assay [7] addresses T1, TesA, E. coli thioesterase. The description is as above. The conditions noted are these: both partners purified.
Assay [8] deals with T2, TesA, E. coli thioesterase. In words: NMR titration; 1H-15N HSQC of 15N, perdeuterated C8-AcpP titrated with unlabeled partner, at least five points; 37 °C; 10 mM potassium phosphate pH 7.4, 0.5 mM TCEP, 0.1% NaN3; TITAN 2D lineshape analysis, flexible stoichiometry model. The conditions noted are these: both partners purified.
The target of assay [9] is T3, FabF, E. coli elongating ketosynthase. Described as above. The conditions noted are these: both partners purified.
Assay [10] addresses B2. In words: NMR titration; 1H-15N HSQC of 15N, perdeuterated C8-AcpP titrated with unlabeled partner, at least five points; 37 °C; 10 mM potassium phosphate pH 7.4, 0.5 mM TCEP, 0.5 mM NAD+, 0.1% NaN3; TITAN 2D lineshape analysis, flexible stoichiometry model. The conditions noted are these: both partners purified.
For assay [11], the target named is B7. The description is as above. The conditions noted are these: both partners purified.

Sequence of FabB (Escherichia coli) (P0A953 whole entry): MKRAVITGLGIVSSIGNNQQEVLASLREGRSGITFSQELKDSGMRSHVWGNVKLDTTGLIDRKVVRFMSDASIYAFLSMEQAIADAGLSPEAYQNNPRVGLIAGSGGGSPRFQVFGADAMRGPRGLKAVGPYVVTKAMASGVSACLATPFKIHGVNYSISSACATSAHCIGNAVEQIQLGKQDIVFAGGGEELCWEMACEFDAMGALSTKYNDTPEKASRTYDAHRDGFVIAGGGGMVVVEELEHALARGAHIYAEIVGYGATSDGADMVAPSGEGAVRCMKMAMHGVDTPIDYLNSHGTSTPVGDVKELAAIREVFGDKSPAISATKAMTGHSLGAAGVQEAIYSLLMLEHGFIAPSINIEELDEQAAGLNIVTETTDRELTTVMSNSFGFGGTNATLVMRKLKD

Turning to AcpP (from UniProt P0A6A8), the Kd in [1] was 37.6 µM.

For B1, the “stoichiometry N” value in assay [2] came to 1.2.

As for B2, the “stoichiometry N” value in assay [3] was about 1.

With B3, in assay [4], the “stoichiometry N” value is 1.3.

For the molecule B4, the results for the dissociation constant Kd in assay [5], in assay [6] and in [7] were 1.6 µM, 6.9 µM and 13 µM, respectively. The koff in assay [5] was 6360 s⁻¹; in [6], 3350 s⁻¹; in assay [7], 9750 s⁻¹.

For the molecule B5, the Kd in assay [8] was found to be 12.5 µM; in assay [9], 8.3 µM; in assay [10], 1.7 µM; in assay [11], 52.3 µM. The koff in [8] stood at 9720 s⁻¹; in assay [9], 3510 s⁻¹; in assay [10] it was 8500 s⁻¹; in assay [11], 3560 s⁻¹.

Consider B6, for which the “stoichiometry N” value in assay [2] came to 2.2.

B7: the “stoichiometry N” value in [3] is 2.
